Laboratory results: patent US20200247886A1 (ZLIP, published 2020)
Positions count from the first letter of the chain named. One block for each binder: values may come before it.

Columns and labels:
[1] = molecular target: T1, human CD47 expressed on cells (CD47 expressing CHO cells, Jurkat, HL60, DLD1, Raji) (human, UniProt Q08722 19-292); experiment: flow cytometry on DLD1 cells, IgG, MFI
T1 construct: also called CHO-CD47; IAP

[2] = molecular target: T1, human CD47 expressed on cells (CD47 …); experiment: flow cytometry on DLD1 cells, IgG, frequency
[3] = molecular target: T1, human CD47 expressed on cells (CD47 …); experiment: IC50 (nM) MFI as grade, blocking biotinylated SIRPa-Fc binding to DLD1 cells; legend +++: <1 nM
[4] = molecular target: T1, human CD47 expressed on cells (CD47 …); experiment: IC50 (nM) Frequency as grade, blocking biotinylated SIRPa-Fc binding to DLD1 cells; legend +++: <1 nM
[5] = molecular target: T1, human CD47 expressed on cells (CD47 …); experiment: flow cytometry blocking assay: 100 nM biotinylated SIRPa-Fc (blocked ligand) on DLD1 cells expressing CD47, MFI
[6] = molecular target: T1, human CD47 expressed on cells (CD47 …); experiment: flow cytometry blocking assay: 100 nM biotinylated SIRPa-Fc (blocked ligand) on DLD1 cells expressing CD47, frequency
[7] = molecular target: T2, CD47 protein (construct not stated; SPR antigen, CD47 coated ELISA plates) (Homo sapiens (Human), UniProt Q08722 19-139, limits assumed); experiment: ELISA on CD47, OD450 against Log[M]; column headed KD beside the legend
T2 construct: also called the antigen

[8] = molecular target: T2, CD47 protein (construct not stated; SPR …); experiment: SPR (Biacore T100), affinity (nM) as grade; legend +: >10 nM and <40 nM
[9] = molecular target: T1, human CD47 expressed on cells (CD47 …); experiment: EC50 (nM) as grade, binding on Jurkat cells; legend +++: >0.05 nM and <1 nM
[10] = molecular target: T1, human CD47 expressed on cells (CD47 …); experiment: EC50 (nM) as grade, binding on CHO-CD47 cells; legend +++: >0.05 nM and <1 nM
CHO/mCD47-GFP = molecular target: T3, CHO/mCD47-GFP (mouse, UniProt Q61735); experiment: flow cytometry on CHO cells expressing mouse CD47-GFP, binding percentage
T3 construct: on the cell surface; also called mouse CD47 expressed on CHO cells; CHO cell expressing mouse CD47
T3 sequence (receptor, looked up): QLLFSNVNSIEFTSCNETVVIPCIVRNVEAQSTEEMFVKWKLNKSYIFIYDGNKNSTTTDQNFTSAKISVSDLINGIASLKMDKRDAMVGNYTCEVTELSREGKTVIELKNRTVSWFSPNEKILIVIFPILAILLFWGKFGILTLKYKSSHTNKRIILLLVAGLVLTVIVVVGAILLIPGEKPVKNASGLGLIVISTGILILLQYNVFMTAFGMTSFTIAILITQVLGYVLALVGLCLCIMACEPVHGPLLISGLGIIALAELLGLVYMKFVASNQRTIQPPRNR

[11] = molecular target: T4, human CD47-Fc protein (Novoprotein, Cat#CG18) (human, UniProt Q08722 19-139); experiment: IC50 (nM) as grade, neutralizing ELISA, CD47-hFc on SIRPα coated plate; legend ++++: <8 nM
T4 construct: Bought protein; also called CD47-hFc; hCD47-hFc fusion protein; not shown: human IgG Fc of the bought fusion protein

[12] = molecular target: T1, human CD47 expressed on cells (CD47 …); experiment: flow cytometry on human red blood cells, donor 2, MFI; EC50 (nM) table beside the legend
[13] = molecular target: T4, human CD47-Fc protein (Novoprotein, …); experiment: IC50 (nM) as grade, blocking of soluble CD47 binding to SIRPα-expressing CHO cells; legend ++: >1 nM and <10 nM
[14] = molecular target: T1, human CD47 expressed on cells (CD47 …); experiment: flow cytometry on human platelets, donor 2, MFI
[15] = molecular target: T1, human CD47 expressed on cells (CD47 …); experiment: IC50 as grade, SIRPα blocking on Raji cells; legend +++: <1 nM
[16] = molecular target: T1, human CD47 expressed on cells (CD47 …); experiment: flow cytometry on human red blood cells, donor 1, MFI
[17] = molecular target: T1, human CD47 expressed on cells (CD47 …); experiment: flow cytometry on human red blood cells, donor 2, MFI
[18] = molecular target: T1, human CD47 expressed on cells (CD47 …); experiment: flow cytometry blocking assay on Raji cells, SIRPα is the blocked ligand, MFI
[19] = molecular target: T1, human CD47 expressed on cells (CD47 …); experiment: flow cytometry on human platelets, donor 1, MFI
[20] = molecular target: T1, human CD47 expressed on cells (CD47 …); experiment: flow cytometry blocking assay on Raji cells, SIRPα is the blocked ligand, MFI; remark: listed apart in the source
[21] = molecular target: T1, human CD47 expressed on cells (CD47 …); experiment: IC50 as grade, SIRPα blocking on Raji cells (second part of the table); legend +++: <1 nM
[22] = molecular target: T1, human CD47 expressed on cells (CD47 …); experiment: flow cytometry on CD47 expressing CHO cells, MFI (FL-4)
[23] = molecular target: T5, biotin labelled polyhistidine tagged CD47 protein (Novoprotein, Cat#321) (human, UniProt Q08722 19-139, biotin labelled (site not stated)); experiment: flow cytometry blocking assay: antibody mixed with biotinylated human CD47 protein; blocked ligand SIRPα on cells; binding percentage
T5 construct: Bought protein; also called biotinylated CD47; biotinylated human CD47 protein; not shown: polyhistidine tag

B1: ABU14 (IgG, chimeric version of the Fab) (antibody, V domains shown)
VH: EVQLQQSGPELVKPGASVKISCKASGYSFTNYHIHWVKQRPGQGLEWIGWIYPGSGNTKYNEKFKGMAILTADTSSSTAYMQLSSLTSEDSAVYYCARYDYDLYLHSWGQGTTVTVSS
VL: DIQINQSPSSLSASLGDTITITCHASQNINVWLSWYQQKPGNIPKLLIYKASNLHTGVPSRFSGSGSGTGFTLTISSLQPEDIATYYCQQGQSYPLTFGAGTKLEIK
EC50 (read off the curve) [1]: ~0.4 nM | EC50 (read off the curve) [2]: ~0.05 nM | IC50 [3]: < 1 nM | IC50 [4]: < 1 nM | IC50 (read off the curve) [5]: ~0.3 nM | IC50 (read off the curve) [6]: ~0.8 nM

B3: H-ABU2b (antibody, V domains shown)
VH: QVQLVQSGAEVKKPGASVKVSCKASGYTFTDFYINWVRQAPGQRLEWMGWIYLGSGNTKYNEKFKGRVTITVDTSASTAYMELSSLRSEDTAVYYCARREERGFAYWGQGTLVTVSS
VL: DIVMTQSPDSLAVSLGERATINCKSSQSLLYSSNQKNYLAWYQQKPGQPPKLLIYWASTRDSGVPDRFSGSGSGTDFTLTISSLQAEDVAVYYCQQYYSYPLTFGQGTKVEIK
Kd [7]: 1.3 nM

B4: H-ABU2a (antibody, V domains shown)
VH: B3 VH with V72R
VL: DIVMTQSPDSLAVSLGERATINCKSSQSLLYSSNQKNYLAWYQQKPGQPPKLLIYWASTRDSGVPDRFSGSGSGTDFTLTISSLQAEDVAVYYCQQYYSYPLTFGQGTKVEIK
Kd [7]: 1.6 nM

B5: H-ABU2c (antibody, V domains shown)
VH: B3 VH with A24V
VL: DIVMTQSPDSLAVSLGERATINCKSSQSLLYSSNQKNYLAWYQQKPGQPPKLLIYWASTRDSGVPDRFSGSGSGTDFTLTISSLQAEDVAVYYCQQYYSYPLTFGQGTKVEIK
Kd [7]: 1.5 nM

B7: H-ABU 7 (antibody, V domains shown)
VH: B3 VH with F32H, V72R, E101D
VL: DIVMTQSPDSLAVSLGERATINCKSSQSLLSSSQKNYLAWYQQKPGQPPKLLIYWASVRDSGVPDRFSGSGSGTDFTLTISSLQAEDVAVYYCQQYYSYPLTFGQGTKVEIK
EC50 (read off the curve) [14]: ~0.6 nM | IC50 [15]: < 1 nM | EC50 (read off the curve) [16]: ~1 nM | EC50 (read off the curve) [17]: ~1 nM | IC50 (read off the curve) [18]: ~0.09 nM

B8: H-ABU 11 (antibody, V domains shown)
VH: B3 VH with V72R
VL: B7 VL with V58T, Y96F
EC50 (read off the curve) [19]: ~1 nM | EC50 (read off the curve) [14]: ~0.9 nM | EC50 (read off the curve) [16]: ~1 nM | EC50 (read off the curve) [17]: ~1 nM | IC50 (read off the curve) [20]: ~0.8 nM | IC50 [21]: < 1 nM

Now from value to binder:

EC50 (read off the curve) [1]: ~0.4 nM | EC50 (read off the curve) [2]: ~0.05 nM | IC50 [3]: < 1 nM | IC50 [4]: < 1 nM | IC50 (read off the curve) [5]: ~0.3 nM | IC50 (read off the curve) [6]: ~0.8 nM
B2: ABU9 (IgG, chimeric version of the Fab) (antibody, V domains shown)
VH: EVQLQQSGPELVKPGASVKLSCKASGFTFTNYYIHWVKQRPGQGPEWIGWIYLGSGNTKYNEKFKGKATLTADTSSSTAYLQLSTLISEDSAVYYCARYDYDLYLDSWGQGTTVTVSS
VL: B1 VL with Q3K, I4M, I106L

Affinity by SPR [8]: 10 to 40 nM | EC50 [9]: 0.05 to 1 nM | EC50 [10]: 0.05 to 1 nM | binding result (CHO/mCD47-GFP): no binding (tested: about 0.4 ug/ml) | IC50 [11]: < 8 nM | EC50 [12]: 0.25 nM | IC50 [13]: 1 to 10 nM
B6: ABU2 (antibody, V domains shown)
VH: QVQLQQPGAELVRPGASVKLSCKASGYTFTNYWMNWFKQRPEQGLEWIGRIDPYDSETLYNQKFKDKAILTVDKSSSTAYMQLSSLTSEDSAVYYCAGGGKGGFGYWGQGTLVTVSA
VL: DVLMTQTPLSLPVSLGDQASISCRSSQSIVYSNGNTYLEWYLQKPGQSPKLLIYKVSNRFSGVPDRFSGSGSGTDFTLKISRVEAEDLGVYYCFQGSHVPYTFGGGTKLEIK
notes: Murine hybridoma monoclonal antibody

IC50 (read off the curve) [20]: ~0.2 nM | IC50 [21]: < 1 nM
B9: H-ABU 8 (antibody, V domains shown)
VH: B3 VH with F32N, I51V, V72R
VL: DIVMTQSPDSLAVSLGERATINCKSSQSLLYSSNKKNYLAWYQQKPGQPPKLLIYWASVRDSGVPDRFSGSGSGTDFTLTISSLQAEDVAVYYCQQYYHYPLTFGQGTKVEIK

EC50 (read off the curve) [22]: ~1 nM | IC50 (read off the curve) [23]: ~3 nM
B10: C-ABU2 (antibody, V domains shown)
VH: B6 VH
VL: B6 VL

Affinity by SPR [8]: 10 to 40 nM | EC50 [9]: 0.05 to 1 nM | EC50 [10]: 0.05 to 1 nM | binding result (CHO/mCD47-GFP): no binding (tested: about 0.4 ug/ml) | IC50 [11]: < 8 nM | IC50 [13]: 1 to 10 nM
B11: Positive 1 (commercial anti-CD47 blocking antibody, eBioscience Cat#14-0479) (antibody, V domains shown)
VH: EVQLVESGGDLVKPGGSLKLSCAASGFTFSGYGMSWVRQTPDKRLEWVATITSGGTYTYYPDSVKGRFTISRDNAKNTLYLQIDSLKSEDTAIYFCARSLAGNAMDYWGQGTSVTVSS
VL: DIVMTQSPATLSVTPGDRVSLSCRASQTISDYLHWYQQKSHESPRLLIKFASQSISGIPSRFSGSGSGSDFTLSINSVEPEDVGVYYCQNGHGFPRTFGGGTKLEIK
notes: also called Pos; B6H12
